From patent US20170267738A1 (IMMATICS BIOTECHNOLOGIES, published 2017)

B1: TCR R10P2G12 (TCR, V domains shown)
V domain 1: AQKVTQAQTEISVVEKEDVTLDCVYETRDTTYYLFWYKQPPSGELVFLIRRNSFDEQNEISGRYSWNFQKSTSSFNFTITASQVVDSAVYFCALSEGNSGNTPLVFGKGTRLSVIA
V domain 2: DVKVTQSSRYLVKRTGEKVFLECVQDMDHENMFWYRQDPGLGLRLIYFSYDVKMKEKGDIPEGYSVSREKKERFSLILESASTNQTSMYLCASSLSSGSHQETQYFGPGTRLLVLE
B2: TCR R20P1H7 (TCR, V domains shown)
V domain 1: EDQVTQSPEALRLQEGESSSLNCSYTVSGLRGLFWYRQDPGKGPEFLFTLYSAGEEKEKERLKATLTKKESFLHITAPKPEDSATYLCAVQGENSGYSTLTFGKGTMLLVSP
V domain 2: EAQVTQNPRYLITVTGKKLTVTCSQNMNHEYMSWYRQDPGLGLRQIYYSMNVEVTDKGDVPEGYKVSRKEKRNFPLILESPSPNQTSLYFCASSLGPGLAAYNEQFFGPGTRLTVLE

Target: MHC/MAG-003 complex on target cells (human)
Assay: cell-based or functional assay

| Binder | EC50 (target peptide titration, IFN-γ release) [nM] |
| --- | --- |
| B1 | ~10 |
| B2 | ~10 |
